According to patent US20220273789A1:

Molecular target: human IgG (human)
Test: BLI (Octet), gEgI on Ni-NTA sensor, hIgG in solution

Substance	Kd [nM]	Response [nm]	koff [s⁻¹]	kon [M⁻¹ s⁻¹]
HSV2-gE_P317F V340W_gI (from UniProt P89475 21-416; P06764 21-256) (receptor)	577	0.116	0.00414	7170
HSV2-gE_P317K S338G_gI (from UniProt P89475 21-416; P06764 21-256) (receptor)	238	0.198	0.00167	7030
HSV2-gE_P317K S338H_gI (from UniProt P89475 21-416; P06764 21-256) (receptor)	338	0.146	0.00195	5780
HSV2-gE_P317K S338L_gI (from UniProt P89475 21-416; P06764 21-256) (receptor)	252	0.334	0.0016	6350
HSV2-gE_P317K V340M_gI (from UniProt P89475 21-416; P06764 21-256) (receptor)	297	0.238	0.00199	6690
HSV2-gE_P317K V340R_gI (from UniProt P89475 21-416; P06764 21-256) (receptor)	241	0.508	0.00163	6740
HSV2-gE_P317K V340W_gI (from UniProt P89475 21-416; P06764 21-256) (receptor)	517	0.111	0.00348	6740
HSV2-gE_P317S S338G_gI (from UniProt P89475 21-416; P06764 21-256) (receptor)	302	0.595	0.00453	15000
HSV2-gE_P317S S338H_gI (from UniProt P89475 21-416; P06764 21-256) (receptor)	154	0.516	0.0021	13600
HSV2-gE_P317S S338L_gI (from UniProt P89475 21-416; P06764 21-256) (receptor)	167	0.549	0.00163	9770
HSV2-gE_P317S V340M_gI (from UniProt P89475 21-416; P06764 21-256) (receptor)	269	0.623	0.0039	14500
HSV2-gE_P317S V340R_gI (from UniProt P89475 21-416; P06764 21-256) (receptor)	277	0.403	0.00191	6890
HSV2-gE_P317S V340W_gI (from UniProt P89475 21-416; P06764 21-256) (receptor)	351	0.131	0.00282	8050
HSV2-gE_P318D S338G_gI (from UniProt P89475 21-416; P06764 21-256) (receptor)	330	0.143	0.00256	7750
HSV2-gE_P318D S338H_gI (from UniProt P89475 21-416; P06764 21-256) (receptor)	280	0.18	0.00215	7690
HSV2-gE_P318D S338L_gI (from UniProt P89475 21-416; P06764 21-256) (receptor)	163	0.303	0.00107	6560
HSV2-gE_P318I S338G_gI (from UniProt P89475 21-416; P06764 21-256) (receptor)	335	0.237	0.00297	8870
HSV2-gE_P318I S338H_gI (from UniProt P89475 21-416; P06764 21-256) (receptor)	286	0.252	0.0025	8740
HSV2-gE_P318I S338L_gI (from UniProt P89475 21-416; P06764 21-256) (receptor)	152	0.411	0.00124	8130
